From patent US20240190950A1 (SHANGHAI JIAO TONG UNIVERSITY, published 2024) come the findings set out here.

To fix the notation:
B2: Gremlin1 (human gremlin 1, hGREM1) (ligand)
chain: KKKGSQGAIPPPDKAQHNDSEQTQSPQQPGSRNRGRGQGRGTAMPGEEVLESSQEALHVTERKYLKRDWCKTQPLKQTIHEEGCNSRTIINRFCYGQCNSFYIPRHIRKEEGSFQSCSFCKPKKFTTMMVTLNCPELQPPTKKKRVTRVKQCRCISIDLD
modifications: biotin label in the ForteBio assay (site not stated)
notes: also called Gremlin1-biotin; Flag-tagged GREM1

Experiment [1] has as its target B2. Description: ELISA, antibody titrated on Gremlin1 (Ab is anti-human-Gremlin1 14E3).
Experiment [2] has as its target T1, FGFR1 (protein used in the ForteBio and ELISA assays) (human, UniProt P11362 22-376, limits assumed).
T1 construct: That entry still holds signal peptide, transmembrane and kinase parts; also called human FGFR1
T1 sequence: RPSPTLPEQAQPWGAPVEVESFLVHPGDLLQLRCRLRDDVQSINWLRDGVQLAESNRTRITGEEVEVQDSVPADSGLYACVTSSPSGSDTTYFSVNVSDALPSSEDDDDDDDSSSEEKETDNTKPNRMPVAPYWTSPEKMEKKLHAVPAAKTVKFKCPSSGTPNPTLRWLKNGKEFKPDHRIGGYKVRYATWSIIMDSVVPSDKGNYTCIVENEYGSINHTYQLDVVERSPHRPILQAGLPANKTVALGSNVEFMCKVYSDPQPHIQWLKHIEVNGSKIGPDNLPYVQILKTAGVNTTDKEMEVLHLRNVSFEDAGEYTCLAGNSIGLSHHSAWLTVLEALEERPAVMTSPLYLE
The experiment in a line: ForteBio (the text calls it surface plasmon resonance analysis); Gremlin1-biotin immobilized on streptavidin sensor, FGFR1 in solution. The text has this: We next asked the mechanism leading to the activation of the FGFR1/MEK/ERK signaling pathway by GREM1. We performed surface plasmon resonance analysis (Fortebio) to first assess whether GREM1 can bind to FGFR1. […] Computer simulation imitated that GREM1 binds to the extracellular domain of FGFR1 as a dimer (FIG. 9B). […] In addition, the activation of GREM1 on the FGFR1/MEK/ERK signaling pathway could be attenuated by adding excessive amount of soluble FGFR1 (FIG. 9G).
A general note: BLI is a label-free optical method that tracks binding on a fibre tip over time.

B1: 14E3 (antibody, IgG2a, V domains shown)
VH: QIQLVQSGPELKKPGETVKISCKTSGSTFTTYGMAWMKQAPGKGLTWMGWINTLSGEPTYADDFKGRFAFSLKTSANTAYLQINNLKNEDAATYFCAREPMDYWGQGTSVIVSS
VL: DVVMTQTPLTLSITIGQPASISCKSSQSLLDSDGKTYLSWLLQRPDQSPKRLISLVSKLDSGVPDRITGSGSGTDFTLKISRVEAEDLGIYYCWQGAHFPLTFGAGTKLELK
notes: also called anti-human-Gremlin1 (14E3); anti-human-GREM1 antibody 14E3
In the case of B1, the concentration giving a half-maximal response (EC50 (read off the curve)) in experiment [1] is roughly 10 ng/mL.
Molecule B2 displayed a Kd in experiment [2] of 10.6 nM.

In general, EC50 (read off the curve) refers to the concentration needed to bring the measured effect to its halfway point. A low value points to an effect from little substance. Usually Kd stands for the free concentration of one partner at which half of the binding sites on the other are occupied at equilibrium, for simple one-to-one binding. Low values mean higher affinity, high ones lower affinity.
